Laboratory results taken from article PMC3145792.
Where “and” joins values, the source holds several entries; their conditions need not be identical. Equal values may be shown once.

The substances below were run against SECRET domain (smallpox virus-encoded chemokine receptor domain) of the vTNFR CrmD encoded by ectrom (ectromelia virus) (assay: SPR).
For “chemokine domain of human CX3CL1 (residues 1-76), mutant I19A (from UniProt P78423 25-100) (domain or fragment)”, the Kd was 1.28 µM and 0.641 µM and 0.96 µM, the koff was 0.00689 s⁻¹ and 0.00578 s⁻¹ and the kon was 5380 M⁻¹ s⁻¹ and 9020 M⁻¹ s⁻¹. For “chemokine domain of human CX3CL1 (residues 1-76), mutant F49A (from UniProt P78423 25-100) (domain or fragment)”, the Kd was 3.75 µM and 4.64 µM and 4.2 µM. With “chemokine domain of human CX3CL1 (residues 1-76), mutant K18A (from UniProt P78423 25-100) (domain or fragment)” the Kd was 10.9 µM and 11.5 µM and 10.3 µM, the koff was 0.0103 s⁻¹ and 0.00518 s⁻¹ and the kon was 1000 M⁻¹ s⁻¹ and 450 M⁻¹ s⁻¹. With “chemokine domain of human CX3CL1 (residues 1-76), mutant R47A (from UniProt P78423 25-100) (domain or fragment)” the Kd was 34.5 µM and 38.4 µM and 36.5 µM. In the case of “chemokine domain of human CX3CL1 (residues 1-76), mutant R44A (from UniProt P78423 25-100) (domain or fragment)”, the Kd is reported as 15.7 µM and 16.6 µM and 16.1 µM. In the case of “chemokine domain of human CX3CL1 (residues 1-76), mutant L23A (from UniProt P78423 25-100) (domain or fragment)”, the Kd is reported as 3.36 µM and 5.62 µM and 4.49 µM.
